Test [1] deals with Cos7 simian kidney cell line. The test can be described thus: Live [Ca2+]i imaging after addition of Wnt ligand, Cos7. It is filed as cell-based. To be noted: Cos7 cells. As for the experimental part:
The imaging protocol was developed in the inventor's laboratory and has been described in detail, elsewhere (Wang at al., (2010) PLoS ONE 5, e10456). Briefly, 100000-200000 PC3, MCF7, 253J or Cos 7 cells were plated on 35 mm FluoroDish (WPI) and grown for 48 h; calcium indicators Fluo-4 (Invitrogen) and FuraRed (Invitrogen) at 1 ng/ml were added to FluoroDish containing only 1 ml of culture medium and incubated for 15-20 min at 37° C. The culture medium was removed and washed (×2) and replaced with 1 ml PBS. Live cell calcium Imaging was performed on an Olympus FluoView FV 1000 confocal microscope (Olympus […]) equipped with a 20× dry objective (numerical aperture=0.75). Calcium indicators were excited with an argon laser line (488 nm) and emissions recorded in the green channel (500-560 nm) for Fluo-4 and red channel (600-700 nm) for FuraRed after addition of vehicle control (PBS) or Wnt X (30-600 ng/ml). […] Fluorescent intensity was measured and data exported as a tab delimited file for further analysis using a spreadsheet. All imaging experiments were performed in duplicate; intracellular calcium at 100 ng/ml was measured in at least 3-12 different passages (passage numbers 25 to 37) of cell line for each Wnt ligand. […] The measurements were exported as a tab delimited file into a spreadsheet for further analysis and Fluo4/Fura Red ratios were calculated. […]

The subject of test [2] is PC3 cells. The test can be described thus: Intranuclear calcium and membrane potential imaging (Fluo4 and FM4-64). It is filed as cell-based. Conditions: Wnt5A 100 ng/ml. As for the experimental part: The imaging protocol was developed in the inventor's laboratory and has been described in detail, elsewhere (Wang at al., (2010) PLoS ONE 5, e10456). Briefly, 100000-200000 PC3, MCF7, 253J or Cos 7 cells were plated on 35 mm FluoroDish (WPI) and grown for 48 h; calcium indicators Fluo-4 (Invitrogen) and FuraRed (Invitrogen) at 1 ng/ml were added to FluoroDish containing only 1 ml of culture medium and incubated for 15-20 min at 37° C. The culture medium was removed and washed (×2) and replaced with 1 ml PBS. Live cell calcium Imaging was performed on an Olympus FluoView FV 1000 confocal microscope (Olympus […]) equipped with a 20× dry objective (numerical aperture=0.75). Calcium indicators were excited with an argon laser line (488 nm) and emissions recorded in the green channel (500-560 nm) for Fluo-4 and red channel (600-700 nm) for FuraRed after addition of vehicle control (PBS) or Wnt X (30-600 ng/ml). Images were acquired every 1.1 or 2.2 seconds for up to 600-800s; image and data acquisition was performed using FluoView 1000 software (Olympus, UK). Fluorescent intensity was measured and data exported as a tab delimited file for further analysis using a spreadsheet. All imaging experiments were performed in duplicate; intracellular calcium at 100 ng/ml was measured in at least 3-12 different passages (passage numbers 25 to 37) of cell line for each Wnt ligand. […]

B1: Wnt5A: Recombinant Wnt peptide purchased from R&D systems (protein, UniProt P41221 62-380, looked up)
Protein Wnt-5a: IIGAQPLCSQLAGLSQGQKKLCHLYQDHMQYIGEGAKTGIKECQYQFRHRRWNCSTVDNTSVFGRVMQIGSRETAFTYAVSAAGVVNAMSRACREGELSTCGCSRAARPKDLPRDWLWGGCGDNIDYGYRFAKEFVDARERERIHAKGSYESARILMNLHNNEAGRRTVYNLADVACKCHGVSGSCSLKTCWLQLADFRKVGDALKEKYDSAAAMRLNSRGKLVQVNSRFNSPTTQDLVYIDPSPDYCVRNESTGSLGTQGRLCNKTSEGMDGCELMCCGRGYDQFKTVQTERCHCKFHWCCYVKCKKCTEIVDQFVCK
In the case of B1, the “[Ca2+]i activation in response to Wnt ligand” value in test [1] is “activated [Ca^2+]i”. Moreover, the “delay of increase in intranuclear Ca2+ after start of increase in [Ca2+]i” value in test [2] (Fluo4 and FM4) is listed as around 33 s. Further, the “FM4 signal (depolarization) of cell and nuclear membranes” value in test [2] (t=250s) is “increase in the FM4 signal in the cell and nuclear membranes”.
